Tests used:
AcrB = target: T1, AcrB (Escherichia coli, UniProt P31224); experiment: fluorescence polarization titration of R6G with AcrB SMALP; assay type: binding
T1 construct: full-length AcrB with C-terminal octahistidine tag (kept); expressed in E. coli, extracted with styrene maleic acid co-polymer into SMALPs, cobalt resin purified; 110 kDa band; homotrimer (~360 kDa)
From the text: fluorescence polarization titration of R6G with AcrB SMALP on AcrB | measure the Kd value of rhodamine 6G binding.

[1] = target: Escherichia coli multidrug transporter AcrB bearing a C-terminal octahistidine tag, in SMA lipid particles (SMALPs) (Escherichia coli) (UniProt P31224); experiment: AUC; protomers to trimer; sedimentation velocity, 0.5 mg/mL AcrB-SMALP, 50 mM Tris pH 8 with 10 mM or 500 mM NaCl, 40,000 rpm, 20 h, 4 °C, c(s) analysis
[2] = target: Escherichia coli multidrug transporter AcrB bearing a C-terminal octahistidine tag, in SMA lipid particles (SMALPs) (Escherichia coli) (UniProt P31224); experiment: negative stain electron microscopy (single particle, 3D reconstruction); protomers to trimer; AcrB SMALPs ~20 ug/mL on carbon-coated grids, 1% uranyl acetate; 6884 singlet particles; refined with C1 and with C3 symmetry

T1 sequence (P31224 whole entry): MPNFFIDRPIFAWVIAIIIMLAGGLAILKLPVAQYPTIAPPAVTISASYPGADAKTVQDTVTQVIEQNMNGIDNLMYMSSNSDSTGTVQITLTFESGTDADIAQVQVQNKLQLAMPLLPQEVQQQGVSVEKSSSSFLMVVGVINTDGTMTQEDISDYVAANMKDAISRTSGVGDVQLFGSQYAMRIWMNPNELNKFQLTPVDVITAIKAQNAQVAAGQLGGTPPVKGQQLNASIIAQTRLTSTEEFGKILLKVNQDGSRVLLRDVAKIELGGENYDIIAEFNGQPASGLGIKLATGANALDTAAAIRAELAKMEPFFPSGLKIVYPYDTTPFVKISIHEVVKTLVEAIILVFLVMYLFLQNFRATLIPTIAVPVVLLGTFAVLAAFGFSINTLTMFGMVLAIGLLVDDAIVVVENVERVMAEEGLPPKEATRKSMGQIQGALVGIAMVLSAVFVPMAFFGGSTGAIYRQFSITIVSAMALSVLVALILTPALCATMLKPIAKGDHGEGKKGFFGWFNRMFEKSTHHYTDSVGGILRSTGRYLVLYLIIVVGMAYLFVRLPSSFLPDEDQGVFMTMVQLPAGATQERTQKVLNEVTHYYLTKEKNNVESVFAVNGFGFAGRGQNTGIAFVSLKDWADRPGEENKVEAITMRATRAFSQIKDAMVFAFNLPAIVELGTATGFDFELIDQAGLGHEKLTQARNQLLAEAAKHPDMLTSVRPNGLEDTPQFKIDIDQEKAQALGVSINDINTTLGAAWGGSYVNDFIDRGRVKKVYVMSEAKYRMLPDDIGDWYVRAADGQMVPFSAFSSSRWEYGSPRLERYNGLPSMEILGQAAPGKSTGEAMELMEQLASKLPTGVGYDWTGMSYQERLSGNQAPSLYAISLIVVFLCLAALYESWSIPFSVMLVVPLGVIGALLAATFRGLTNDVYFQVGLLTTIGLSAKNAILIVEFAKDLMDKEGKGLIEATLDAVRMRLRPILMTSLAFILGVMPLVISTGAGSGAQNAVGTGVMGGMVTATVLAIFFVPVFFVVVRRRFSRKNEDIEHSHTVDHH

| stoichiometry N [1] | stoichiometry N [2] | Molecule | Kd (AcrB) [nM] |
| --- | --- | --- | --- |
| – | – | CCN=c1cc2oc3cc(NCC)c(C)cc3c(-c3ccccc3C(=O)OCC)c-2cc1C [rhodamine 6G] | 52 ± 6.6 |
| 3 | 3 | Escherichia coli multidrug transporter AcrB bearing a C-terminal octahistidine tag, in SMA lipid particles (SMALPs) (from UniProt P31224 1-1049) (natural protein) | – |
